The results in this text go back to patent US20090004675A1, “Method of Identifying Compounds for Bacterial Growth Modulation” (priority 2004, published 2009).

Test [1] addresses Escherichia coli β clamp (beta subunit of DNA polymerase III holoenzyme) (UniProt P0A988). Put plainly: fluorescence anisotropy; labeled peptide. A general note: Fluorescence polarisation rises when a labelled molecule tumbles more slowly, as on binding a larger partner.
Test [2] shares this target. Nature of the test: fluorescence (fluorophore-labeled β titrated with peptide); ±0.9; labeled β.
Test [3] shares this target. Nature of the test: fluorescence (fluorophore-labeled β titrated with peptide); ±0.6; labeled β.

By Kd is commonly meant the concentration at which binding is half-saturated. Read a high Kd as weaker binding.

Sequence of Escherichia coli β clamp (beta subunit of DNA polymerase III holoenzyme) (P0A988 whole entry): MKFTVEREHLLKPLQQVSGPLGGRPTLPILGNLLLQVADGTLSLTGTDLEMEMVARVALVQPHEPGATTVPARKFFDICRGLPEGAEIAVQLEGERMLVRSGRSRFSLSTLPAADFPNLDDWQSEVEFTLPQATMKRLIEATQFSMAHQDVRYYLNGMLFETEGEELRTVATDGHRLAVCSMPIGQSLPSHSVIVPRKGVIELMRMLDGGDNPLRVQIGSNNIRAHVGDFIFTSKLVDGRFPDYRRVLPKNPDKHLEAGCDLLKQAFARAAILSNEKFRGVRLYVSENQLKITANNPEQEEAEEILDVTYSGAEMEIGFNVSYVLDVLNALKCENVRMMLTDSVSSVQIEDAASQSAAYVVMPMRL
Sequence of Peptide corresponding to C-terminal residues of Streptococcus pyogenes Pol C (A2RGI3 1444-1465): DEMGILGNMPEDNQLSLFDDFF
Sequence of C-terminal peptide corresponding to Staphylococcus aureus Pol C (A6QGG4 1419-1438): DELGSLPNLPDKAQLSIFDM

On to “C-terminal peptide corresponding to Staphylococcus aureus Pol C”, for which the Kd in test [1] worked out at 5.9 µM; in test [2], 7.2 µM.

“Peptide corresponding to C-terminal residues of Streptococcus pyogenes Pol C”: the Kd in test [1] worked out at 1.5 µM; in test [3], 2.5 µM.
